B1: his6-cortactin, wild type (purified) [not stated] / GST-GluA2 C-terminal tail [not stated] (parent complex)
chain 1: not shown
chain 2: EFCYKSRAEAKRMKVAKNPQNINPSSSQNSQNFATYKEGYNVYGIESVKI

Variants of: B1
Assay: GST pulldown, Western blot quantification; Input is 0.2% of offered protein; n = 3-6; read off a plot

Row | Variant | percent of parent
1 | chain 2 P19A, chain 2 Q20A | ~83
2 | chain 2 R12A, chain 2 M13A | ~55
3 | chain 2 K17A, chain 2 N18A | ~76
4 | chain 2 K11A | ~22
5 | chain 2 K14A, chain 2 V15A | ~37
